Experimental data published in patent US20250019440A1 (Zymeworks, published 2025).

What was measured:
[1] = target: T1, Human CLDN18.1 (human, UniProt P56856 1-261); assay: flow cytometry, purified construct on transfected HEK293-6E cells
T1 construct: On transfected HEK293-6E cells

[2] = target: T2, Human CLDN18.2 (human); assay: FACS on transfected HEK293-6E cells, 4 parameter logistic fit
T2 construct: On transfected HEK293-6E cells; also called Claudin18.2

[3] = target: T3, Cynomolgus monkey CLDN18 (cynomolgus monkey); assay: as above
T3 construct: On transfected HEK293-6E cells; also called Cyno CLDN18; cynomologus monkey CLDN18.2 ortholog
T3 chain: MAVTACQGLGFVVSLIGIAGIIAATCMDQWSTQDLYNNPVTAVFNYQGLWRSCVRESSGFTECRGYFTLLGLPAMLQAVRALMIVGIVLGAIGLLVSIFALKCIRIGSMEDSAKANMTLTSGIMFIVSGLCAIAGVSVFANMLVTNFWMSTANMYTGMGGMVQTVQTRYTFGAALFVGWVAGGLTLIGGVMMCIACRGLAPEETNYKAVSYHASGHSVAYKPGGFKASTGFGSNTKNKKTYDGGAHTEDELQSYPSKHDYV

[4] = target: T4, Mouse CLDN18 A2.1 (mouse, UniProt P56857 10-264); assay: as above
T4 construct: On transfected HEK293-6E cells; also called Mouse CLDN18 2.1; mouse CLDN18.2 ortholog
T4 chain: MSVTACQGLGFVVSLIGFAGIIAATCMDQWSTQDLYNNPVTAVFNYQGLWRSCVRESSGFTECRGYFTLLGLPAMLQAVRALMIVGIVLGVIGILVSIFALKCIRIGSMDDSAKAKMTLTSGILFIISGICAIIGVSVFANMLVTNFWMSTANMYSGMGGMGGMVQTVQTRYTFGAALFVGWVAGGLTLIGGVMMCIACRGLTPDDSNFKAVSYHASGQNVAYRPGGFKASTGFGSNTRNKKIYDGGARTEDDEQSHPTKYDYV

T1 sequence (P56856 whole entry): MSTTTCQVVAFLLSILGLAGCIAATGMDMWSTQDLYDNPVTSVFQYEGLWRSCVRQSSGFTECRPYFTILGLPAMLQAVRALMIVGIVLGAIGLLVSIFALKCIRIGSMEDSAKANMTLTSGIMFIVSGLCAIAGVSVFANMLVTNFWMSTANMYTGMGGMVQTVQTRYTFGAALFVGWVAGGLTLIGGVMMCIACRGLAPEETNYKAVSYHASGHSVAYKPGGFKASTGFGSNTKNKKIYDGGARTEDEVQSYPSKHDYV

B1: v35777 (antibody, human IgG1, V domains shown)
VH: QSLEESGGRLVTPGTPLTLTCTVSGIDLSSNPMIWVRQAPGKGLQYIGIIDTDGSTYYASWAKGRFTGSKTSTTVDLKITSPTTEDTATYFCARRLHGSSNGYYDDLWGQGTLVTISS
VL: DGVMTQTPSSVSAAVGGTVTIKCQASQSIYSYLSWYQQKPGQRPKLLIYKASTLASGVPSRFKGSGSGTEFTLTISGVQCDDAATYYCQQGYTVTNVDKNTFGGGTEVVVK
notes: Rabbit variable regions on human IgG1 (constant region starts at alanine Kabat-114) and human C kappa (starts at arginine Kabat-108); also called parental rabbit chimeric; rabbit-human chimeric IgG1/kappa antibody construct
B1 was tested, and the binding result [1] was “no binding”, the Bmax [2] was 2070 and the EC50 [2] was 1.29 nM. The Bmax [3] was 1660, the EC50 [3] was 0.48 nM and the Bmax [4] was 1640. For the same binder, the EC50 [4] was 0.87 nM.
